Experimental data published in patent US20050037969A1 (ARBOR VITA, published 2005).
Ends that are not written are not given here. * marks the point of attachment. Biotin = O=C1N[C@H]2[C@H](CS[C@H]2CCCCC(=O)*)N1

What was measured:
Assay in all cases: A/G assays
[1] = molecular target: T1, GST-TAX-IP2 PDZ domain fusion protein (human, UniProt O14908 129-216)
T1 construct: also called TAX-1P2; TAX2; not shown: glutathione S-transferase encoded by vector pGEX-3X (Pharmacia)
T1 chain: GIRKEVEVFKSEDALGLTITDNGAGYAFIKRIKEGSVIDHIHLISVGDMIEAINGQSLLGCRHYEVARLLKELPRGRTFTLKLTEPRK

[2] = molecular target: T2, TAX-IP33 PDZ-GST fusion protein (Homo sapiens (Human), UniProt O14910 103-193)
T2 construct: Order of GST and PDZ part and limits not seen in the excerpts
T2 sequence: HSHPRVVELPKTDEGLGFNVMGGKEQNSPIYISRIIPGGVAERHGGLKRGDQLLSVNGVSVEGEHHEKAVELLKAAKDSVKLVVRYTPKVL

[3] = molecular target: T3, GST-KIAA0303 PDZ domain fusion protein (Homo sapiens (Human), UniProt O15021 1138-1228)
T3 construct: also called K303; not shown: glutathione S-transferase encoded by vector pGEX-3X (Pharmacia)
T3 sequence: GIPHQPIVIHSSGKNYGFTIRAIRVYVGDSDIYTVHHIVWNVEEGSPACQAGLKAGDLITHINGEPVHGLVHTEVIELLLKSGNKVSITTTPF

[4] = molecular target: T4, GST-prIL16 fusion protein (PDZ domains 1-2) (Homo sapiens (Human), UniProt Q14005 1111-1324)
T4 construct: also called putative interleukin 16 precursor; not shown: glutathione S-transferase encoded by vector pGEX-3X (Pharmacia)
T4 sequence: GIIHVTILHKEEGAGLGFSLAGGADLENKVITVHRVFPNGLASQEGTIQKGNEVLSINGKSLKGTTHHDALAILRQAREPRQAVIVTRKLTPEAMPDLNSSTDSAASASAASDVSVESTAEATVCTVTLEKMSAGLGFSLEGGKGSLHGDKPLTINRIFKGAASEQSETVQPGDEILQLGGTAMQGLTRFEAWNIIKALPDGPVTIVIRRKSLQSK

[5] = molecular target: T5, GST-AF6 PDZ domain fusion protein (Homo sapiens (Human), UniProt P55196 1001-1093)
T5 construct: also called af-6 protein; not shown: glutathione S-transferase encoded by vector pGEX-3X (Pharmacia)
T5 sequence: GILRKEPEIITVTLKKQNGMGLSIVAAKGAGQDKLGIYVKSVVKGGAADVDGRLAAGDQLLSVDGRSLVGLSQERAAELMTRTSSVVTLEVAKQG

[6] = molecular target: T6, K316 PDZ-GST fusion protein (Homo sapiens (Human), UniProt Q14CM0 72-159)
T6 construct: Order of GST and PDZ part and limits not seen in the excerpts

[7] = molecular target: T7, ConEn PDZ-GST fusion protein (Homo sapiens (Human), UniProt Q969H4 193-287)
T7 construct: The label ConEn is not explained in the excerpts
T7 sequence: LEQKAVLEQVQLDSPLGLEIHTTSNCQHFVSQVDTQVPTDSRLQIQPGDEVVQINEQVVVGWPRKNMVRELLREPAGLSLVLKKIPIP

[8] = molecular target: T8, GST-TAX-IP43 PDZ domain fusion protein (human, UniProt Q13884 109-180)
T8 construct: also called TAX43; not shown: glutathione S-transferase encoded by vector pGEX-3X (Pharmacia)
T8 sequence: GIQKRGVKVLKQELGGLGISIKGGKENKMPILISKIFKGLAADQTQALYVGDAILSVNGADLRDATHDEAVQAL

[9] = molecular target: T9, SP short PDZ-GST fusion protein (Homo sapiens (Human), UniProt O43464 350-435)
T9 construct: The label SP short is not explained in the excerpts
T9 sequence: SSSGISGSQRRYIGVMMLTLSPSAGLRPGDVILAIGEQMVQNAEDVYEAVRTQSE

[10] = molecular target: T10, GEF PDZ-GST fusion protein (Homo sapiens (Human), UniProt Q8TEU7 293-400)
T10 construct: The label GEF is not explained in the excerpts
T10 sequence: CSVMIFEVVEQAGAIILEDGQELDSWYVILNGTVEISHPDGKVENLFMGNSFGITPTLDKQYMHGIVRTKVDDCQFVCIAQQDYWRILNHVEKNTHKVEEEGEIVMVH

[11] = molecular target: T11, K858 PDZ-GST fusion protein (Homo sapiens (Human), UniProt Q8WWI1 1038-1131)
T11 construct: Order of GST and PDZ part and limits not seen in the excerpts
T11 sequence: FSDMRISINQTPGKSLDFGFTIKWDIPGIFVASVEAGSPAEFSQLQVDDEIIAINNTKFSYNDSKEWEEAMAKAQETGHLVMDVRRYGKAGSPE

[12] = molecular target: T12, GST-DVL1 PDZ domain fusion protein (human, UniProt O14640 247-339)
T12 construct: also called human dishevelled segment polarity protein homolog; not shown: glutathione S-transferase encoded by vector pGEX-3X (Pharmacia)
T12 sequence: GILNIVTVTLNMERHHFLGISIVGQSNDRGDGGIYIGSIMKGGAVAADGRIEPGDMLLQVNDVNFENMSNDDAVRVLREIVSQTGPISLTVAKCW

[13] = molecular target: T13, PICK1 PDZ-GST fusion protein (Bos taurus (Bovine), UniProt Q2T9M1 17-105)
T13 construct: Order of GST and PDZ part and limits not seen in the excerpts

[14] = molecular target: T14, TAX-IP2L PDZ-GST fusion protein (Homo sapiens (Human), UniProt Q8TF64 107-197)
T14 construct: Order of GST and PDZ part and limits not seen in the excerpts
T14 sequence: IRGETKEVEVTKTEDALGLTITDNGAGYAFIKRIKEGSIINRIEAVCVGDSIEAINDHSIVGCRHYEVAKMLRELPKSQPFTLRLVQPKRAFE

[15] = molecular target: T15, GST-TIAM1 PDZ domain fusion protein (Homo sapiens (Human), UniProt Q13009 845-931)
T15 construct: also called TLAM1; T-lymphoma invasion and metastasis inducing protein 1; not shown: glutathione S-transferase encoded by vector pGEX-3X (Pharmacia)

[16] = molecular target: T16, GST-DLG5 (p-dlg) PDZ domain fusion protein (Human, UniProt Q8TDM6 1343-1583)
T16 construct: also called Human discs large protein p-dlg; not shown: glutathione S-transferase encoded by vector pGEX-3X (Pharmacia)
T16 sequence: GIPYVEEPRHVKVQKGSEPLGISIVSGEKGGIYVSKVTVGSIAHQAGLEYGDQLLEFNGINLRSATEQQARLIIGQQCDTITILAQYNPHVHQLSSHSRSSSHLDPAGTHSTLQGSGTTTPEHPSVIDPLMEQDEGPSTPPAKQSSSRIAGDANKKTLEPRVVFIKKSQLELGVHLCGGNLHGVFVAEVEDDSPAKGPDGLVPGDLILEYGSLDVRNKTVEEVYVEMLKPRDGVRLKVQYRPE

Measured: binding result

T6 sequence (Q14CM0 72-159 limits assumed): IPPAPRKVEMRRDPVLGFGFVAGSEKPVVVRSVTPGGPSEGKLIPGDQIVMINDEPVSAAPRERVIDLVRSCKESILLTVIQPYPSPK
T13 sequence (Q2T9M1 other isoform, or with tags, fused parts or gaps limits assumed): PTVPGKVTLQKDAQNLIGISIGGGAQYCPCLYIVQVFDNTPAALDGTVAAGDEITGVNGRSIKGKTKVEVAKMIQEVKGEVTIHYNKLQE
T15 sequence (Q13009 other isoform, or with tags, fused parts or gaps): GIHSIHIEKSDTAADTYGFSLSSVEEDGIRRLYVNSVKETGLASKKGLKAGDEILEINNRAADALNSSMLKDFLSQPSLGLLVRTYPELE

B1: CD83 C-terminal peptide AA47L, biotinylated (peptide)
peptide: Biotin-VTSPNKHLGLVTPHKTELV
no binding: all assays above

B2: CD46 (Form 1) C-terminal peptide AA10L, biotinylated (peptide)
peptide: Biotin-KKGTYLTDETHREVKFTSL
no binding: all assays above

B3: CD95 (Fas) C-terminal peptide AA13L, biotinylated (peptide)
peptide: Biotin-KDITSDSENSNFRNEIQSLV
notes: also called CD95 (Apo-1/Fas); AAI3L
no binding: all assays above

B4: DOCK2 C-terminal peptide AA40L, biotinylated (peptide)
peptide: Biotin-LASKSAEEGKQIPDSLSTDL
no binding: all assays above

B5: BLR-1 C-terminal peptide AA45L, biotinylated (peptide)
peptide: Biotin-PSWRRSSLSESENATSLTTF
notes: also called CXCR5
no binding: all assays above

B6: CD3n C-terminal peptide AA4L, biotinylated (peptide)
peptide: Biotin-SVFSIPTLWSPWPPSSSSQL
notes: also called CD3η; CD3-eta
no binding: all assays above
